Laboratory results from US5773001 (American Cyanamid Company, dated 1998).
Read-outs that look alike come from different tables or passages of the source. One block for each molecule: values may come before it.

Tests used:
CD33 antigen (human) [1] = molecular target: CD33 antigen (human) (UniProt P20138)
CD33 antigen (human) [2] = molecular target: CD33 antigen (human) (UniProt P20138); test: competition with 125I-labelled native antibody on HEL 92.1.7 cells; IC50 (reference) / IC50 (sample)
CD33 antigen (human) [3] = molecular target: CD33 antigen (human) (UniProt P20138); remark: listed apart in the source
[4] = molecular target: T1, glycoprotein antigen present on colon cancer cells, recognized by A33 (Homo sapiens (Human)) (UniProt Q99795); test: competition with 125I-labelled native antibody on COLO 205 cells; IC50 (reference) / IC50 (sample)
T1 sequence: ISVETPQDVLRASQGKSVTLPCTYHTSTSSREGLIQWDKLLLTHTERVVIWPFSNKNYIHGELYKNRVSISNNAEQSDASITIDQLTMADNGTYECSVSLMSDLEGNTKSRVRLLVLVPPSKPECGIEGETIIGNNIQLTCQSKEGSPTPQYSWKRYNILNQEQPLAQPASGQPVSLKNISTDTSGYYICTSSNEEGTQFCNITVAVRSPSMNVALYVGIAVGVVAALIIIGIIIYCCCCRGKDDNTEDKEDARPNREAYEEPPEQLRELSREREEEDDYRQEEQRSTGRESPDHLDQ

[5] = molecular target: T1, glycoprotein antigen present on colon cancer cells, recognized by A33 (Homo sapiens (Human))
CD33 antigen (human) [6] = molecular target: CD33 antigen (human) (UniProt P20138); remark: listed apart in the source
[7] = molecular target: T1, glycoprotein antigen present on colon cancer cells, recognized by A33 (Homo sapiens (Human)); remark: listed apart in the source
CD33 antigen (human) [8] = molecular target: CD33 antigen (human) (UniProt P20138); remark: listed apart in the source
CD33 antigen (human) [9] = molecular target: CD33 antigen (human) (UniProt P20138); remark: listed apart in the source
CD33 antigen (human) [10] = molecular target: CD33 antigen (human) (UniProt P20138); remark: listed apart in the source
CD33 antigen (human) [11] = molecular target: CD33 antigen (human) (UniProt P20138); remark: listed apart in the source
CD33 antigen (human) [12] = molecular target: CD33 antigen (human) (UniProt P20138); remark: listed apart in the source
CD33 antigen (human) [13] = molecular target: CD33 antigen (human) (UniProt P20138); remark: listed apart in the source
CD33 antigen (human) [14] = molecular target: CD33 antigen (human) (UniProt P20138); remark: listed apart in the source
CD33 antigen (human) [15] = molecular target: CD33 antigen (human) (UniProt P20138); remark: listed apart in the source
CD33 antigen (human) [16] = molecular target: CD33 antigen (human) (UniProt P20138); remark: listed apart in the source
CD33 antigen (human) [17] = molecular target: CD33 antigen (human) (UniProt P20138); test: competition with 125I-labelled native antibody on HEL 92.1.7 cells; IC50 (reference) / IC50 (sample); remark: listed apart in the source
CD33 antigen (human) [18] = molecular target: CD33 antigen (human) (UniProt P20138); remark: listed apart in the source
CD33 antigen (human) [19] = molecular target: CD33 antigen (human) (UniProt P20138); remark: listed apart in the source
CD33 antigen (human) [20] = molecular target: CD33 antigen (human) (UniProt P20138); remark: listed apart in the source
CD33 antigen (human) [21] = molecular target: CD33 antigen (human) (UniProt P20138); remark: listed apart in the source
CD33 antigen (human) [22] = molecular target: CD33 antigen (human) (UniProt P20138); remark: listed apart in the source
CD33 antigen (human) [23] = molecular target: CD33 antigen (human) (UniProt P20138); remark: listed apart in the source
CD33 antigen (human) [24] = molecular target: CD33 antigen (human) (UniProt P20138); remark: listed apart in the source
CD33 antigen (human) [25] = molecular target: CD33 antigen (human) (UniProt P20138); remark: listed apart in the source

Molecule: Conjugate of 4-4-(3-oxobutyl)phenoxy!butanoic acid (16) condensed with Calicheamicin N-acetyl gamma dimethyl hydrazide and m-P67.6 (antibody)
In vitro IC50 (3H-thymidine incorporation) (CD33 antigen (human) [1]): 9 ng/mL

Molecule: Conjugate of 4-(4-acetylphenoxy)butanoic acid (7) condensed with calicheamicin N-acetyl gamma dimethyl hydrazide and h-A33 (antibody)
Rel. Affinity [4]: 1.13
In vitro IC50 (3H-thymidine incorporation) [5]: 4.03 ng/mL

Molecule: Conjugate of 4-4-(3-oxopropyl)phenoxy!butanoic acid (18) condensed with Calicheamicin N-acetyl gamma dimethyl hydrazide and m-P67.6 (antibody)
Rel. Affinity (CD33 antigen (human) [2]): 1.21
In vitro IC50 (3H-thymidine incorporation) (CD33 antigen (human) [9]): 0.62 ng/mL

Molecule: Conjugate of 4-(4-acetyl-2,6-dimethoxyphenoxy)butanoic acid (14) condensed with Calicheamicin N-acetyl gamma dimethyl hydrazide and m-P67.6 (antibody)
Rel. Affinity (CD33 antigen (human) [2]): 1.18
In vitro IC50 (3H-thymidine incorporation) (CD33 antigen (human) [11]): 0.015 ng/mL

Molecule: Conjugate of 4-(4-formylphenoxy)butanoic acid (9) condensed with Calicheamicin N-acetyl gamma dimethyl hydrazide and m-P67.6 (antibody)
Rel. Affinity (CD33 antigen (human) [2]): 0.7
In vitro IC50 (3H-thymidine incorporation) (CD33 antigen (human) [12]): 0.087 ng/mL

Molecule: Conjugate of 4-(4-acetyl-2-methoxyphenoxy)butanoic acid (15) condensed with Calicheamicin N-acetyl gamma dimethyl hydrazide and m-P67.6 (antibody)
Rel. Affinity (CD33 antigen (human) [2]): 0.8
In vitro IC50 (3H-thymidine incorporation) (CD33 antigen (human) [15]): 0.029 ng/mL

Molecule: Conjugate of 4-(2-acetyl-1-naphthalenyl)oxy! butanoic acid (20) condensed with Calicheamicin N-acetyl gamma dimethyl hydrazide and m-P67.6 (antibody)
Rel. Affinity (CD33 antigen (human) [2]): 0.66
In vitro IC50 (3H-thymidine incorporation) (CD33 antigen (human) [16]): 0.0067 ng/mL

B1: Conjugate of 4-(4-acetyl-2-methylphenoxy)butanoic acid (10) condensed with Calicheamicin N-acetyl gamma dimethyl hydrazide and h-P67.6 (antibody, V domains shown)
VH: EVQLVQSGAEVKKPGSSVKVSCKASGYTITDSNIHWVRQAPGQSLEWIGYIYPYNGGTDYNQKFKNRATLTVDNPTNTAYMELSSLRSEDTDFYYCVNGNPWLAYWGQGTLVTVSS
VL: DIQLTQSPSTLSASVGDRVTITCRASESLDNYGIRFLTWFQQKPGKAPKLLMYAASNQGSGVPSRFSGSGSGTEFTLTISSLQPDDFATYYCQQTKEVPWSFGQGTKVEVKR
modifications: drug-linker amide on lysine side chains, sites not stated; drug-linker amide on lysine side chains, sites not stated
Rel. Affinity (CD33 antigen (human) [17]): 1.16
In vitro IC50 (3H-thymidine incorporation) (CD33 antigen (human) [18]): 0.45 ng/mL

B2: Conjugate of 4-(4-formyl-2-methoxyphenoxy)butanoic acid (11) condensed with Calicheamicin N-acetyl gamma dimethyl hydrazide and h-P67.6 (antibody, V domains shown)
VH: B1 VH
VL: B1 VL
modifications: drug-linker amide on lysine side chains, sites not stated; drug-linker amide on lysine side chains, sites not stated
Rel. Affinity (CD33 antigen (human) [17]): 0.73
In vitro IC50 (3H-thymidine incorporation) (CD33 antigen (human) [19]): 3.8 ng/mL

B4: Conjugate of 4-4-(3-oxopropyl)phenoxy!butanoic acid (18) condensed with Calicheamicin N-acetyl gamma dimethyl hydrazide and h-P67.6 (antibody, V domains shown)
VH: B1 VH
VL: B1 VL
modifications: drug-linker amide on lysine side chains, sites not stated; drug-linker amide on lysine side chains, sites not stated
Rel. Affinity (CD33 antigen (human) [17]): 0.8
In vitro IC50 (3H-thymidine incorporation) (CD33 antigen (human) [21]): 1.1 ng/mL

The remaining lines, values ahead:

Rel. Affinity (CD33 antigen (human) [2]): 1.2
In vitro IC50 (3H-thymidine incorporation) (CD33 antigen (human) [3]): 0.0098 ng/mL
Molecule: Conjugate of 4-(2-acetyl-5-methoxyphenoxy!butanoic acid (17) condensed with Calicheamicin N-acetyl gamma dimethyl hydrazide and m-P67.6 (antibody)

Rel. Affinity (CD33 antigen (human) [2]): 0.73
In vitro IC50 (3H-thymidine incorporation) (CD33 antigen (human) [6]): 0.12 ng/mL
Molecule: Conjugate of 4-formylbenzenepropanoic acid (12) condensed with Calicheamicin N-acetyl gamma dimethyl hydrazide and m-P67.6 (antibody)

Rel. Affinity [4]: 0.91
In vitro IC50 (3H-thymidine incorporation) [7]: 3.55 ng/mL
Molecule: Conjugate of 4-(4-acetylphenoxy)butanoic acid (7) condensed with calicheamicin gamma dimethyl hydrazide and h-A33 (antibody)

Rel. Affinity (CD33 antigen (human) [2]): 1
In vitro IC50 (3H-thymidine incorporation) (CD33 antigen (human) [8]): 0.38 ng/mL
Molecule: Conjugate of 4-(3-formylphenoxy)butanoic acid (8) condensed with Calicheamicin N-acetyl gamma dimethyl hydrazide and m-P67.6 (antibody)

Rel. Affinity (CD33 antigen (human) [2]): 0.22
In vitro IC50 (3H-thymidine incorporation) (CD33 antigen (human) [10]): 0.13 ng/mL
Molecule: Conjugate of 4-(4-formyl-2-methoxyphenoxy)butanoic acid (11) condensed with Calicheamicin N-acetyl gamma dimethyl hydrazide and m-P67.6 (antibody)

Rel. Affinity (CD33 antigen (human) [2]): 1.07
In vitro IC50 (3H-thymidine incorporation) (CD33 antigen (human) [13]): 0.041 ng/mL
Molecule: Conjugate of 4-(4-acetyl-2-methylphenoxy)butanoic acid (10) condensed with Calicheamicin N-acetyl gamma dimethyl hydrazide and m-P67.6 (antibody)

In vitro IC50 (3H-thymidine incorporation) (CD33 antigen (human) [14]): 0.062 ng/mL
Rel. Affinity (CD33 antigen (human) [2]): 1.08
Molecule: Conjugate of 4-(2,3-Dimethoxy-5-formylphenoxy)butanoic acid (13) condensed with Calicheamicin N-acetyl gamma dimethyl hydrazide and m-P67.6 (antibody)

Rel. Affinity (CD33 antigen (human) [17]): 1.07
In vitro IC50 (3H-thymidine incorporation) (CD33 antigen (human) [20]): 0.24 ng/mL
B3: Conjugate of 4-(4-acetyl-2,6-dimethoxyphenoxy)butanoic acid (14) condensed with Calicheamicin N-acetyl gamma dimethyl hydrazide and h-P67.6 (antibody, V domains shown)
VH: B1 VH
VL: B1 VL
modifications: drug-linker amide on lysine side chains, sites not stated; drug-linker amide on lysine side chains, sites not stated

In vitro IC50 (3H-thymidine incorporation) (CD33 antigen (human) [22]): 1 ng/mL
Rel. Affinity (CD33 antigen (human) [17]): 0.73
B5: Conjugate of 4-formylbenzenepropanoic acid (12) condensed with Calicheamicin N-acetyl gamma dimethyl hydrazide and h-P67.6 (antibody, V domains shown)
VH: B1 VH
VL: B1 VL
modifications: drug-linker amide on lysine side chains, sites not stated; drug-linker amide on lysine side chains, sites not stated

In vitro IC50 (3H-thymidine incorporation) (CD33 antigen (human) [23]): 0.23 ng/mL
Rel. Affinity (CD33 antigen (human) [17]): 0.78
B6: Conjugate of 4-(4-acetyl-2-methoxyphenoxy)butanoic acid (15) condensed with Calicheamicin N-acetyl gamma dimethyl hydrazide and h-P67.6 (antibody, V domains shown)
VH: B1 VH
VL: B1 VL
modifications: drug-linker amide on lysine side chains, sites not stated; drug-linker amide on lysine side chains, sites not stated

In vitro IC50 (3H-thymidine incorporation) (CD33 antigen (human) [24]): 0.088 ng/mL
Rel. Affinity (CD33 antigen (human) [17]): 0.98
B7: Conjugate of 4-(2-acetyl-5-methoxyphenoxy!butanoic acid (17) condensed with Calicheamicin N-acetyl gamma dimethyl hydrazide and h-P67.6 (antibody, V domains shown)
VH: B1 VH
VL: B1 VL
modifications: drug-linker amide on lysine side chains, sites not stated; drug-linker amide on lysine side chains, sites not stated

In vitro IC50 (3H-thymidine incorporation) (CD33 antigen (human) [25]): 1.1 ng/mL
Rel. Affinity (CD33 antigen (human) [17]): 1.16
B8: Conjugate of 4-(2,3-dimethoxy-5-formylphenoxy)butanoic acid (13) condensed with Calicheamicin N-acetyl gamma dimethyl hydrazide and h-P67.6 (antibody, V domains shown)
VH: B1 VH
VL: B1 VL
modifications: drug-linker amide on lysine side chains, sites not stated; drug-linker amide on lysine side chains, sites not stated
